Experiment: label from the status in PepcDB records

**Q.** Which protein production does the source give for “MKSKNSLLLTTVFTLLVTITTSNVFAAETATVKADENSTDKKNVSKKSYRVSKKVPAMRNRVYSQLSRAQQLADDGDKIEGFEVLAEVEDRLNSLNSYERAMLFNFYGFMYYANEDITLAVDSFNKVIAETAIPDSLIISTLYSLAQLSMQQQHYKEALDYLTQWREINAKELTGTQEMLFAQVYYQDKDFVNSLKHSEMAISLVEAKNKHPKENWLTLQRATYYELKQPKQVTKVMEKLIRLYDKPQYWLQLSSMYGEIGEEDKQMAVMEAAYQAGYITKASDILTLSQLYLFHGAPFKSAAVLEDSIAQGSIFADEDNLSMLARAYLTAKEYDKATKVLVRVSDIAQSGKHDALLAQTYLNTEQWQAAINSSTLALARYAKHKENKGNQVNDIANMHLILGMANFNLKKFERSLTSFAKAAQFTSTKKTALQWGKYVEREQQHHKVQLAMLN” here?
**A.** The protein production was “failed”.

**Q.** For “MKSLETMARYKKELTECARNLKLPFLAEHLDEILHEAQEKQQTYSEFLSTCLMRELRDKERRSYLTRLKFAGLPARYDLDLYDFSRTEGIDQRQMRELRELVWIRRTYNLLLVGDSGTGKTFIASGLIHEAVKAGYKAYLLTLEELFVCLKTKEISRPAMKTYKRIMKAQLLAIDDVTLFPLKGEDVLLLFKLVNCVQGKTSLIITASRDLTGWLEMAGDEVCAAALLDRLLYCCEIIRLSGKSYRMENRKTIFSNQQIGTASLEHHHHHH”, which protein production is on record?
**A.** The protein production was “failed”.

**Q.** For “MKSLLMRTGSMPVLQNRLISGGSSRKMTPISRTNSVESLSSYGERFAGGKISIEVKANVGMRRVLSESDVIRSERMLKRVGSKPSPARIPEDDEAGEEEIRFADGWGSMISGGLPVEEKCFTGGGVGGGSGYSGGYGNGGGGGYEDKSKIGDYYREMLRSNPNNSLLLMNYGKFLYEVEKDAEGAEEYYGRAILENPGDGEALSMYGRLIWETKRDEKRAQGYFDQAVNASPNDCMVLGSYARFMWEAEDDDDDDEEEEEEEWMAASPLMVSAV”, which protein production is on record?
**A.** Its protein production is “failed”.

**Q.** For “MKSNDTSFRRYLCSASPRLRPALLAMLTVVLLAGCATADKHGLSPQQRSASDLADSEEIDPAARERISHALGRDADEGALRDALKQQPNNIDAAIPLARALLARNCPNDALEVLDGVLLATPGDLRALNAKAVVLDHEGRHQEAQELYRQALAAEPANPMLRNNFGLSLALQGKMDAGDASAAPQAGSRKALARSR”, which protein production is on record?
**A.** Its protein production is “failed”.

**Q.** With “MKSNLFMKRKLEIGLSLLIGTSVFGGCNNDLAPIRQSQTFPPNLNAPTVFESFSPDSGGVKTQLIIRGQNFGTDTAYLKVTVNNKRAAIVGVADDVIYAIVPARADTGYVRLFVGKDDNVEEYASQTKFIYQFKRNVTTLMGRQGQSGRDDGPYAECKLQRPWFALADKDGALFFIDEGRGQNKNGALRRAQEGWVETLVQNSSGPFQSPTCLAFNPKQDTLYISNMSYGSDIKTSFNILYVTREGGFMDVKGLCKFEKAETQGLAVHPQTGEIFFCNKSGGYIYRFNGPDYEDYEPLFQINRADKIDTRMVFNPEGTALFVVVCNRHCIYKVPYNALTHTFGEPELFAGGWDESGYVNGSGVTARFDNPRQPAFDQDGNMFVPEYGRHTIRKITPTGEVSLYAGLPGQAGFTDGLPEKARFNKPECVTVYLDNSLYVADRDNHLIRRVTVE” as the sequence, how does the protein production read?
**A.** The protein production was “failed”.

**Q.** Which protein production does the source give for “MKSRTRWLTSEELVTLFEAMRQAPGFSVENGLSIKLLLLLAVRKGELIGARWSEFDLDKAVWYLPAERTKTESAIDIPLPPIAVEWLRELQRLAGVSKWVLPARKMQDRMIPHIAESTLSVALAKIKHGLEPFTIHDLRRTARTHFEALGVAPHIAERCLNHKIKGIEGIYNRHDYFEERKAALEAWAGLLLQIERGEADKVVPIRRAVATKQLEHHHHHH” here?
**A.** The protein production was “failed”.

**Q.** For “MKSSDIDQDLFTDSYCKVCSAQLISESQRVAHYESRKHASKVRLYYMLHPRDGGCPAKRLRSENGSDADMVDKNKCCTLCNMSFTSAVVADSHYQGKIHAKRLKLLLGEKTPLKTTGLRRNYRCAICSVSLNSIEQYHAHLKGSKHQTNLKNK”, which protein production is on record?
**A.** The protein production was “failed”.

**Q.** For “MKSTAEDLINGEISSVGVYLYNKLKNYVFEKESSEKTAIRKADFGKIIEEKTDLEEFPAVSKEDIKAICEILYNSKDIEIIIKQLYVFQSDINKSLDEIKEDFVSLFPKTINLENGRINLETGERISFLLKIFEVLDEGIQTALNRAVDEGSSGASNALSNRRHFDMKNKLANGFKEVKKLINESSRAVQEKKIPTEKLPSLFISYAREDDEPFVEKLYQGLKEKGFEIWWDRTAMKNRGRTFLQEIRDAIEDSDLLIAVIGPKAIESDSVRYEWEHALLFSKGVIPVLRMGDYNLLLPEMSKLHCPDFREKRPYEEALEELIRLLKEPIPSLGPIIGIPSLPPNHLPRKNDLNIIKEIILADTVKPVVITSTKQVTALQGMGGMGKSVLSAAFARSAETRRAFYDGIFWITVGLEASESDASGNMRLIGTNLGDDPVNYSSKKEAEASLSKMLSDKVCLIILDDVWKVPQATPFFNALGSRCRLLITTRNDDVVTSLGAQKHEIKVLGKPEALKLLANWCEQEIDSLTSKAAEVARECGYLPLALSICGAMAKSGISWTYILEALQEADLEFIEAQLPNYPDPNVGRALKVSVDFLSLEDPNAVMRYQELVIFPEDELVPETTIAMLWEHTGNLKRRNVEKLLTKLKDRSLLRLDGEAPNRLISLHDLQLDYLRATVGDLTSLHNKLLAAYGKECGNKWSNGSEDGYFFEHLAYHMKEAGRREELHKLLLDFEWMCKKIKCVRLMQEKDGKGIPDLNSLLHDYEFLSNEPKIELVKEAIQLSFDIIAKDEAQFSGQLIGRLQVFNQNEEIRLLLDQATQWKEEDVRLIPLQPCLKPPGGSLKRTFKAHAHPINDVVITSNGKVAISASTDKTIRIWDLNEWIEKGTLKGHLTPVTAIAVSLDGKYAASCSYHIMCLIGDNNIKVWDLEKREEKTTLKGHTHWVQTVAITPDGKYIVSGSLDKTIKFGI”, which protein production is on record?
**A.** Its protein production is “failed”.

**Q.** With “MKSTLIDNFTLLLWASLMASSFVVSEQLLPYANPIASTALRFILATILMMPFIGRASIKQLNYKILLRYSVISLFLVLFFIGLFEALKTTNAMRTSVIYTLLPLISVVLTYIGLKFVTPNKQIAGFLIGTLGAIWVLVAFTQGKLVLIEWRLGDSIFLVACCCLALHVILIKKWATDVPPMLGAFYIMLLGSLILLPFLIFFGDLNNIAWHEDEFWKVLLYLTLFTTIATFFLQQHLLKKVGPNRLLGFTYLIPSIVLIPQGLANMSQLYSVVPGIMLTFLALYLISPKHQ” as the sequence, how does the protein production read?
**A.** Its protein production is “failed”.

**Q.** For “MKSVAGGLLRIGMRHDHDMTNRRLDAVILAGGCAHRLGGVAKANLRVGTRRLLDVVLDAVDGAREGLEGSNVVVARESVEVPWSVIRTMEDPPGSGPLAGIRAGLQALPPAQPDDLVLVCAVDSPGIGRSIRQLREALEDDPLNHFAGAVTFGGVPKPHRQLLQGLYRRVPLEASIAAADTVVNRSVHSVLGGLCLLDLPVEPEACRDLDTPGDVEWWLRHIGD”, which protein production is on record?
**A.** Its protein production is “failed”.

**Q.** Which protein production does the source give for “MKSVGQALENQGRVPRNTNDELIQMILADAQVAEFIKTHQLSQREINISMSKFNQFLIERQKFKNKDSQYIAKGYEPILVMNEGYADVSYLETRELIEAQKKQAISDRINLVNLPKSYRNIRMTDFDINNESRMKAMSQLLDFVETYPSYNHKGLYLYGDMGVGKSYLMAAMARELSERKGVSTTLLHFPSFAIDVKNAISSGTVKDEIDAVKSVPILILDDIGAEQATSWVRDEILQVILQHRMLEELPTFFTSNYSFNDLERKWANIKGSDETWQAKRVMERVRYLAIEFHLEGPNRR” here?
**A.** The protein production was “failed”.

**Q.** With “MKSYLVGGAVRDALLGQPAGDCDWVVVGADPAHMKSLGFKPVGRDFPVFLHPKTGEEFALARTERKNGHGYRGFIVNADPTVTLEQDLQRRDFTINAIARDQTNGTLIDPYGGVNDLEQRVLRHISPAFAEDPLRVLRAARFMARLAPLGFSIAPETLAMMRQMAANGELNSLIPERIWKELSRSLTYTQPAAFLHTLRTVNALEVVLPELNALYGVPQHADYHPEIDTGLHQELVSDIAAKLAPGDMLIGFAALCHDLGKALTPRATWPHHPMHEQRGMAPTQQLSERLKVPRNYQQLALIACREHLNVHRLSKLHDNTVYELLQRCDAFRRPERIAQLAIVCEADYRGRYGHEDANYPQGQHLCRLHAAALAINARDLNRQDLHGTQIGEALAQARIRAISSAGVYDGGTGTNF” as the sequence, how does the protein production read?
**A.** Its protein production is “failed”.

**Q.** With “MKTAWLLLLLLGVGALGGCAVNPATGKSDFVMMSEQQELGMGARYNQEILKQFPRYNDEKLQAYVQRVGERVARSSHRSNLQYHFTVIDSPDINAFALPGGYIYIHRGLIAYLGSEAELAAVLGHEVGHVTARHSVRQQSQASAWNILGQAVAIGTGVGAAGDLANVLGTAFVRGYGRDMELEADGLGAQYLARAGYDPTAMIQVVRVLKNQEDFAREEAARNGQAVQAGGYHGLFDTHPDNDRRLQEVVGPARQLANGQQEVGREVFLRHLEGMPFGDSASAGVRRGQNFYHAELDFTLSYPAGWKILNQPSALLGYPADEQSFIGMKLVPHDSRLTPAEFLRKNAGQRLAQEESLKQAGLNGYTAVVPGNPARRVAVIYQGDRAYLFVGVVKVGSLETQDDRFLSVIRSFRPLRDKERALAQPRRLHLVQVKAGQTLEQLAAGGEGSLSDSVARLRLLNDLYPSGEPRPGDWLKVVR” as the sequence, how does the protein production read?
**A.** The protein production was “failed”.

**Q.** With “MKTFKKGVILDAKSVGLKALEVLKEVADFDFYEVTPPSQIVERSIEAEIMVLNKVVITQEVLSQLPKLKLICITATGTDNVDIKSAKALGIEVKNVSAYSTESVAQHTLACALSLLGRINDYDRYCKSGEYSQSDLFTHISDIKMGLIKGSQWGVIGLGTIGKRVAKLAQAFGAKVVYYSPKDKKEEYERLSLKDLLATSDIISIHAPLNESTRDLIALKELQSLKDGAILINVGRGGIVNEKDLAEILETKDLYYASDVFVKEPFEKDHAFLNPKIQNKLLLTPHIAWAYSDSLKTLVEKTKENIQDFLASQK” as the sequence, how does the protein production read?
**A.** The protein production was “failed”.

**Q.** For “MKTGKELKPGTVLRIDNDPWLVQKAEFTKSGRNSAIMKTKLKNLLTGYKTETVYGADDKLDDVILDRKEATLSFINGDEYTFMDTTDYTMYELNAEDIEAVLPYIEEGMEDVCEAVFFEGRLVSVELPTTISRKVVYTENAARGDTSGKVMKPAKLANGTEISVADFIQIDEWIDIDTRDNSFKGRSKKLEHHHHHH”, which protein production is on record?
**A.** Its protein production is “not failed”.

**Q.** Which protein production does the source give for “MKTIKDWQINICLATYNGQKYLRQQLDSIIQQGYTDWICLIRDDGSTDDTVAIIKEYVNRDSRFIFINSNDDRKLGSHRSFYELVNYKKADFYVFSDQDDVWKENRLERYLEEAEKFNQELPLLVYSNWTSVDEKLTVLKEHNPATVIQEQIAFNQINGMVIMMNHELAKLWEYRQIGAHDSYVGTLAYAVGNVAYISDSTVLWRRQVGAESLNNYGRQYGVATFWQMINTSFDRASLIFAQVSDKMSLERKLFFSRFIELKNANLMRRIYLLSKLKLRRKSLKETVAMTILLLTGYGKPKALEHHHHHH” here?
**A.** Its protein production is “not failed”.

**Q.** With “MKTITQELKQYMTHLFQLSNNEAWECEALEEAAENILPERFINDSPLVQLTLETYTYYNDELHELSIYPFLMYANNQLISIGYLDHFDMDFLYLTDTQNIIIDERHLLKQGGQDHELEHHHHHH” as the sequence, how does the protein production read?
**A.** The protein production was “not failed”.

**Q.** Which protein production does the source give for “MKTIVIEDKQRIESIILQADACFVGITDLEGNPYVVPMNFGYENDTLYLHSGPEGGKIEMLQRNNNVCITFSLGHKLVYQHKQVACSYSMRSESAMCRGKVEFIEDMEEKRHALDIIMRHYTKDQFSYSDPAVRNVKVWKVPVDQMTGKVFGLRADEKP” here?
**A.** The protein production was “not failed”.

**Q.** With “MKTKIAYEEVAGMLNQWYVMIKRHEVSQAVSIKCDIEHQLPNMEENQDLLLYFNLLDYRHKLLTEEFAASNKLFEDIQEQKADMQSTDDMIEYYYFFFAGMYEFHKKDYTNAINYYKLAEEKLRTIPDQIEIAEFHYKLAIAYYQIKQNFLSLNHAKTALKTFKAHDDYIQKAISNDMLIGANKLDLFRFDEAEQHYKQALKDAALIKHHVLLGMAHHNLGLSYVNRNLLTLAEHHFKEALLIKEHEESVYGIHSMFELTHVLYKSNVVKEARKLYEKGFFRAEKAGEREYLSKFKLIHALYDEQDPLTVEHALEYLKTINLWTDVAELTFDIALYYKENGDADKAAEYFEESHHARDQILKRTEELK” as the sequence, how does the protein production read?
**A.** Its protein production is “failed”.
